Assay results published in US20220332829A1 (NANJING SANHOME PHARMACEUTICAL, published 2022).

Columns and labels:
[1] = molecular target: T1, B7-H3 on surface of tumor cell (786-0, MDA-MB-231, Raji-B7-H3 cells) (human, UniProt Q5ZPR3 29-534); assay: cell-based or functional assay
T1 sequence (looked up): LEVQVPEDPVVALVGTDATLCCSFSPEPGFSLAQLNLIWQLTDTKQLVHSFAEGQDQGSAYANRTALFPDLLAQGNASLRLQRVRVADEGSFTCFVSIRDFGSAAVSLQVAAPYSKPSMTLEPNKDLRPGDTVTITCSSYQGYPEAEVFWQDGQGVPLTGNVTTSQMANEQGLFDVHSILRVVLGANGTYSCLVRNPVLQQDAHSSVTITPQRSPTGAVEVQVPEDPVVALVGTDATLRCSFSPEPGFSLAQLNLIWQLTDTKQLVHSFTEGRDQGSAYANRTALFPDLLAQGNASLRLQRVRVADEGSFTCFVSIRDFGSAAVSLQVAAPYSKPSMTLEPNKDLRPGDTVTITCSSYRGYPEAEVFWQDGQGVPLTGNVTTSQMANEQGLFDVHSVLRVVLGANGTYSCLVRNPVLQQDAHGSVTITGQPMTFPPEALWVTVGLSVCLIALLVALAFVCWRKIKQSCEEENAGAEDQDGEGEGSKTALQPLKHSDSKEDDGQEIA

[2] = molecular target: T1, B7-H3 on surface of tumor cell (786-0, …); assay: FACS on 786-0 cells
Description: (§1) The binding activity of antibodies to B7-H3 on the surface of tumor cells was analyzed by FACS. Mean fluorescence intensity (MFI) and EC₅₀ detected by FACS indicate the binding activity of the antibody to cells. After 786-0 and MDA-MB-231 cells were digested, they were resuspended in 2% FBS-PBS solution and counted. After raji-B7-H3 cells were collected, they were resuspended in 2% FBS-PBS and counted. The above cells were plated in a cell plate with 1×10⁵ cells per well. The anti-B7-H3 antibody of the present disclosure was used as the primary antibody and added to cell plates in gradient dilution starting from 20 μg/mL with a total of 8 concentrations: 20,000 ng/mL, […], 2,000 ng/mL, 400 ng/mL, 80 ng/mL, 16 ng/mL, 3.2 ng/mL, and 0.64 ng/mL respectively. The plates were incubated at 4° C. for 1 h with hBRCA84D as the positive control antibody. PE-Anti-Human IgG (Biolegend, Cat. No. 409303, 1.25 μl/well) was used as the secondary antibody, washed, and detected for the fluorescence intensity generated by the binding of the antibody to the cell surface by a flow cytometer.

[3] = molecular target: T2, human 4Ig-B7-H3-His protein (human, UniProt Q5ZPR3 29-466); assay: Biacore X100 SPR, 4Ig-B7-H3-His coupled to CM5 chip, antibody injected
T2 construct: also called human B7-H3 protein
T2 sequence: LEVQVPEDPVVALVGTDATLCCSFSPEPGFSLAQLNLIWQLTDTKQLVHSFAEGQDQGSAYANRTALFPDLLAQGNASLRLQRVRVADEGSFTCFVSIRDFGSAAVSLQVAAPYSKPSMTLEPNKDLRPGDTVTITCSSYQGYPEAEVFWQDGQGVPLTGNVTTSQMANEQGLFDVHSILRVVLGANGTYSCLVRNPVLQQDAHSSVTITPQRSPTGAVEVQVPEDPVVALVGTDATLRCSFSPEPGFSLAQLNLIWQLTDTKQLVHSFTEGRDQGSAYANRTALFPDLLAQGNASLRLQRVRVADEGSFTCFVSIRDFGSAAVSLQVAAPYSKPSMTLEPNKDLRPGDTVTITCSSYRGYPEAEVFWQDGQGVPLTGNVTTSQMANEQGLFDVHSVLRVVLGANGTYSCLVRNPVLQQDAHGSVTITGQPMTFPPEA
From the text: The humanized anti-B7-H3 antibodies prepared in Example 4 were subjected to affinity assay by Biacore. The antigen 4Ig-B7-H3-His was first coupled to the surface of a CM5 chip (GE, Cat. No. BR100012), and the active groups of the uncoupled protein were blocked with ethanolamine. After the baseline was stable, the hu39-01, hu65-13, and hBRCA84D antibodies were respectively diluted in equal proportions. The diluted antibodies of each concentration were placed on the sample injection tray of the instrument in sequence, and the program was set to inject samples respectively.

[4] = molecular target: T1, B7-H3 on surface of tumor cell (786-0, …); assay: FACS on Raji-B7-H3 cells
Description: as §1

[5] = molecular target: T1, B7-H3 on surface of tumor cell (786-0, …); assay: FACS on MDA-MB-231 cells
Description: as §1

B1: SHS007-39-CHI (antibody, human IgG1, V domains shown)
VH: EVQLQQSGPELVKPGASVKISCKTSGYTFTEYTIHWMKQSHGKSLEWIGGLNPNTGGTTYNQKFKDKATLTVDKSSSTAYMALRSLTSEDSAVYYCARKGGWFFLDYWGQGTTLIVSS
VL: QIVLTQSPAIMSASPREKVTMTCSASSSVSYMHWYQQKSGTSPKRWIYDTSKLASGVPARFRGSGSGTSYSLTISNMEAEDAATYYCQQWSSNPPTFGGGTKVEIK
[1]
  EC50 Ratio (ADCC, LDH method; EC50 of hBRCA84D divided by EC50 of the antibody; 786-0 target cells, human PBMC effectors): 212

B2: SHS007-65-CHI (antibody, human IgG1, V domains shown)
VH: EVQLVESGGGLVKPGGSLKLSCAASGFTFSDYGIHWVRQAPEKGLEWVAYISSGSNTIYYADTVKGRFTISRDNAKNTLFLQMTSLRSEDTAIYYCATMVTRWFYYAMDYWGQGTSVTVSS
VL: QIVLTQSPAIMSASPGEKVTMTCSASSSVSYMYWYQQKSGTSPKRWIYDTSKLASGVPARFSGSGSGTSYSLTINNMEAEDAATYYCQQWSSNPPTFGAGTKLELK
[1]
  EC50 Ratio (ADCC, LDH method; EC50 of hBRCA84D divided by EC50 of the antibody; 786-0 target cells, human PBMC effectors): 18.6

B3: SHS007-72-CHI (antibody, V domains shown)
VH: QVQLVQSGPELKKPGETVKISCKASGYTFTNYGMYWVKQAPGEGLKWMGWINTHTGEPTYGDDFKGRFAFSLETPATIAFLEISILKNEDTATYFCARKSFGDFIYAMDFWGQGTSVTVSS
VL: DIQMTQTTSSLSASLGDRVTISCRASQDIGKYLNWYQQKPDGTVKLLIYYTSRLHLGVPSRFSGSGSGTDFSLTISNLEQEDTATYFCQQGTTLPPTFGGGTKVEIK
[1]
  EC50 Ratio (ADCC, LDH method; EC50 of hBRCA84D divided by EC50 of the antibody; 786-0 target cells, human PBMC effectors): 7.1

B4: SHS007-95-CHI (antibody, V domains shown)
VH: EVKLVESGGELVKPGGSLKLSCAASGFTLSSYVMSWVRQTPEKRLEWVAAISRYGDPTNFPDNMRDRFTISRDNAKNTLSLQMSSLRSEDTALYFCARHHFDGTSWYFDVWGPGTTVTVSS
VL: EIVLTQSPALMAASPGERVTITCSVSSSISSIDLHWYQQKSGTFPKLWIYGTSNLASGVPVRFSGSGSGTSYSLTISTMEAEDAATYYCQQWSSFPLTFGSGTKLEIK
[1]
  EC50 Ratio (ADCC, LDH method; EC50 of hBRCA84D divided by EC50 of the antibody; 786-0 target cells, human PBMC effectors): 11.4

B5: SHS007-17-CHI (antibody, human IgG1, V domains shown)
VH: QVHLQQSGPELVKPGASVKMSCKASGFTFTDYVVSWVKQRTGQGLEWIGEIYPGGGFIHYNEKFKGKATLTADKSSNTAYMQLTSLTSEDSAVYFCARFPKYYFDYWGQGTTLTVSS
VL: DVVMTQTPLSLPVSLGDQASISCRSSQSIVHSNRYTYLEWYLQKPGQSLKLLIYGVSNRFSGVPDRFSGSGSGTDFTLKISRVEAEDMGVYYCFQSTLFPWTFGGGTKLEIK
[1]
  EC50 Ratio (ADCC, LDH method; EC50 of hBRCA84D divided by EC50 of the antibody; 786-0 target cells, human PBMC effectors): 20.1

B6: SHS007-59-CHI (antibody, V domains shown)
VH: EVQLQQSGPELVKPGTSVKIPCKASGYTFTDYHMDWVKQSHGKSLEWIGDINPNNGGTIYNQKFKGKATLTVDKSSSTAYMELRGLTSEDTAVYYCARGGLHDYWGPGTTLTVSS
VL: DIVMTQSQKFMSTKVGDRVSITCKASQSVGTAVAWYQQKPGQSPKLLIYSTSNRYTGVPDRFTNNASGTDFTLTISNVQSADLADYFCQQYGNYPLTFGGGTKLEIK
[1]
  EC50 Ratio (ADCC, LDH method; EC50 of hBRCA84D divided by EC50 of the antibody; 786-0 target cells, human PBMC effectors): 4.4

B7: SHS007-51-CHI (antibody, V domains shown)
VH: EVQLVESGGDSVKPGGSLKLSCAASGFTFSSFGMSWVRQTPDKRLEWVATINSGDNYSYSPDSVKGRFTISRDNAKNILYLQMSSLKSEDTAMYYCARPHIFYYGSPAWFAYWGQGTLVTVSA
VL: DVVMTQTPLSLPVSLGDQASVSCRSRQSLVHSNGNTYLHWYLQRPGQSPKLLIYKVSNRFSGVPDRFSGSGSGTDFTLKISRVEAEDLGVYFCSQSTHVPLTFGAGTKLELK
[1]
  EC50 Ratio (ADCC, LDH method; EC50 of hBRCA84D divided by EC50 of the antibody; 786-0 target cells, human PBMC effectors): 6.6

B8: hu65-13 (antibody, human IgG1, V domains shown)
VH: EVQLVESGGGLVQPGGSLRLSCAASGFTFSDYGIHWVRQAPGKGLEWVSYISSGSNTIYYADTVKGRFTISRDNAKNSLYLQMNSLRAEDTAVYYCATMVTRWFYYAMDYWGQGTTVTVSS
VL: EIVLTQSPATLSLSPGERATLSCSASSSVSYMYWYQQKPGQAPRRLIYDTSKLASGVPARFSGSGSGTDYTLTISSLEPEDFAVYYCQQWSSNPPTFGQGTKLEIK
notes: expressed in HEK293E; also called humanized anti-B7-H3 antibody hu65-13
[2]
  EC50: 0.266 µg/mL
  Mean fluorescence intensity (MFI): 566000
[3]
  Kd: 0.198 nM
  koff: 1.89e-05 s⁻¹
  kon: 95400 M⁻¹ s⁻¹
[4]
  EC50: 0.266 µg/mL
  Mean fluorescence intensity (MFI): 566000
[5]
  EC50: 0.14 µg/mL
  Mean fluorescence intensity (MFI): 151000
